Results as given in patent publication US20260274986A1, “USE OF CHIMERA IN TARGETED PROTEIN DEGRADATION TECHNOLOGY” (SUN YAT-SEN UNIVERSITY, priority 2023, published 2026).

Legend:
EGFR = biological target: T1, EGFR (Homo sapiens, UniProt P00533); experiment: Chimera-induced degradation of EGFR, Western blot; format: cell-based; details: 48 hours
T1 construct: two EGFR-high-expressing cell lines-A431, and A549-were selected for the experiment; endogenous in cells; host or cells: A431, A549
Protocol: In this Example, two EGFR-high-expressing cell lines-A431, and A549-were selected for the experiment. The cells were plated one day before the administration of chimeras. […] Subsequently, the cells were lysed using a lysis buffer, total proteins were extracted, and protein concentration was quantified using a BCA protein assay kit (Thermo Fisher). Proteins were separated by 10% SDS-PAGE and transferred onto polyvinylidene fluoride (PVDF) membranes via electroblotting. The membranes were blocked with 5% skim milk at room temperature for 1 hour. After removing the milk, the membranes were incubated with a primary antibody overnight at 4° C. on a shaker. The next day, the membranes were quickly immersed in TBST and washed three times, followed by incubation with a secondary antibody at room temperature for 1 hour. Finally, the proteins were detected and recorded using a chemiluminescence reagent and a Tanon chemiluminescence imaging system, and quantitative analysis was performed on the proteins using ImageJ. All primary antibodies used in this Example were an anti-EGFR antibody.

CDK5 = biological target: T2, CDK5 (Homo sapiens, UniProt Q00535); experiment: Chimera-induced degradation of intracellular target CDK5, Western blot; format: cell-based; details: T24 cells; 48 hours; compared to PEP2 and P1
T2 construct: a CDK5-high-expressing cell line—T24 human bladder cancer cells—was selected for the experiment; endogenous in cells; host or cells: T24
Protocol: In this Example, a CDK5-high-expressing cell line—T24 human bladder cancer cells—was selected for the experiment. The cells were plated one day before the administration of chimeras. Each of PEP2, P1 and PEP-C4-P1 was diluted in complete medium and incubated with the cells for 48 hours. Subsequently, the cells were lysed using a lysis buffer, total proteins were extracted, and protein concentration was quantified using a BCA protein assay kit (Thermo Fisher). Proteins were separated by 10% SDS-PAGE and transferred onto polyvinylidene fluoride (PVDF) membranes via electroblotting. The membranes carrying the proteins were blocked with 5% skim milk at room temperature for 1 hour. After removing the milk, the membranes were incubated with a primary antibody overnight at 4° C. on a shaker. The next day, the membranes were quickly immersed in TBST and washed three times, followed by incubation with a secondary antibody at room temperature for 1 hour. Finally, the proteins were detected and recorded using a chemiluminescence reagent and a Tanon chemiluminescence imaging system, and quantitative analysis was performed on the proteins using ImageJ. All primary antibodies used in this Example were an anti-CDK5 antibody.

T2 sequence (Q00535 whole entry): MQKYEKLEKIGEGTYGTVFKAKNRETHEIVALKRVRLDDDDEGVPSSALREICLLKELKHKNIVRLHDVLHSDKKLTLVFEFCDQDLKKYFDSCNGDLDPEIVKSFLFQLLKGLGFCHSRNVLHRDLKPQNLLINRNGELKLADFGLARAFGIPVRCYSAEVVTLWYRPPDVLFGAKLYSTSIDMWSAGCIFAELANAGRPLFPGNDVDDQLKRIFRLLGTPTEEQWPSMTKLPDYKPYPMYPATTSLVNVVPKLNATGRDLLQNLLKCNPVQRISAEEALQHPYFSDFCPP

PEP1-P1: EGFR-binding polypeptide PEP1 (LARLLT) fused at C-terminus to P1, SEQ ID NO: 134 (LARLLTSFHDDSDEDLLHI)
degradation of EGFR (Western blot, FIG. 6C) (EGFR; A431 cells): obvious degradation effect on the membrane receptor EGFR
degradation of EGFR (Western blot, FIG. 6C) (EGFR; A549 cells): obvious degradation effect on the membrane receptor EGFR

PEP2-C4-P1: CDK5-binding polypeptide PEP2 (RRPPRSPDHKRYFRDKE) fused at C-terminus to C4-P1, SEQ ID NO: 136 (RRPPRSPDHKRYFRDKEYGRKKRRQRRRSFHDDSDEDLLHI)
degradation of CDK5 (Western blot, FIG. 15) (CDK5): obvious degradation effect on CDK5

PEP1-C3-P1: EGFR-binding polypeptide PEP1 (LARLLT) fused at C-terminus to C3-P1, SEQ ID NO: 135 (LARLLTRRRRKSFHDDSDEDLLHI)
degradation of EGFR (Western blot, FIG. 6C) (EGFR; A431 cells): obvious degradation effect on the membrane receptor EGFR
degradation of EGFR (Western blot, FIG. 6C) (EGFR; A549 cells): obvious degradation effect on the membrane receptor EGFR
